The text below walks through data of article PMC3934923.

For this test, the target named is LKB1 (endogenous, C2C12 myotubes) (mouse (endogenous in C2C12)) (UniProt Q9WTK7). The following applies: scale: % of the AMPK phosphorylation obtained with AICAR.
UniProt Q9WTK7, sequence (Q9WTK7 whole entry): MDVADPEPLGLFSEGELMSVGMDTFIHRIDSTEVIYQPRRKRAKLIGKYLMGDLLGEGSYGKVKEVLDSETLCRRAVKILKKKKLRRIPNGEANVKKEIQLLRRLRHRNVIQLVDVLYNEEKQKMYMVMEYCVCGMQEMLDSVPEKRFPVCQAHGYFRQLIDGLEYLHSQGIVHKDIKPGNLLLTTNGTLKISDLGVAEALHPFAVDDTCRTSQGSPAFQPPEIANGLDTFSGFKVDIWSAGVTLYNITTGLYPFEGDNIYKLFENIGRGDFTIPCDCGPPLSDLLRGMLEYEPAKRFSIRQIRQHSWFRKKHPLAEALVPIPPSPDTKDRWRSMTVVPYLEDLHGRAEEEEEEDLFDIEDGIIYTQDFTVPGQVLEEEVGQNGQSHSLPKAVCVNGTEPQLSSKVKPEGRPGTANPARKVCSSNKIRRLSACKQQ

For “Fyn (endogenous, C2C12 myotubes) (from UniProt P39688 1-537) (enzyme)”, the AMPK T172 phosphorylation in C2C12 myotubes transduced with increasing concentrations of 11R-WT, immunoblot; little effect with 11R-Sca is 80.
